B1: … (peptide)
peptide: TYIDTRTVF
B2: … (peptide)
peptide: YYMELTKLLL
B3: … (peptide)
peptide: VYSSQFETI
B4: … (peptide)
peptide: VYEAMVPLF
B5: SYGTVSQI (peptide)
peptide: SYGTVSQI
B6: … (peptide)
peptide: RYLTISNLQF
B7: … (peptide)
peptide: AFPTFSVQL
B8: … (peptide)
peptide: RYHPTTCTI
B9: … (peptide)
peptide: IYISNSIYF
B10: … (peptide)
peptide: RYPALFPVL
B11: … (peptide)
peptide: VFKSEGAYF
B12: … (peptide)
peptide: TYNPNLQDKL
B13: … (peptide)
peptide: KQLDIANYELF
B14: … (peptide)
peptide: QYLDGTWSL
B15: … (peptide)
peptide: AFADVSVKF
B16: … (peptide)
peptide: IYSVGAFENF
B17: … (peptide)
peptide: VYPHFSTTNLI
B18: … (peptide)
peptide: QYILAVPVL
B19: … (peptide)
peptide: GYIRGSWQF
B20: … (peptide)
peptide: AYAANVHYL
B21: … (peptide)
peptide: SYSEIKDFL
B22: … (peptide)
peptide: FYPQIINTF
B23: … (peptide)
peptide: YYTQYSQTI
B24: … (peptide)
peptide: SYGTILSHI
B25: … (peptide)
peptide: TFITQSPLL
B26: … (peptide)
peptide: RYLINSYDF
B27: … (peptide)
peptide: NYLDVATFL
B28: … (peptide)
peptide: AYAQLGYLLF
B29: … (peptide)
peptide: VYMNVMTRL
B30: … (peptide)
peptide: IFTDIFHYL
B31: … (peptide)
peptide: TYTFLKETF
B32: … (peptide)
peptide: TYLEKIDGF
B33: … (peptide)
peptide: LYTETRLQF
B34: … (peptide)
peptide: VFTTSSNIF
B35: … (peptide)
peptide: QYLVHVNDL
B36: … (peptide)
peptide: QYLEKYYNL
B37: … (peptide)
peptide: FYTLPFHLI
B38: … (peptide)
peptide: RYVFPLPYL
B39: … (peptide)
peptide: SYQVIFQHF
B40: … (peptide)
peptide: SYLNEAFSF
B41: … (peptide)
peptide: GYIEHFSLW
B42: … (peptide)
peptide: SYLTWHQQI
B43: … (peptide)
peptide: IYAGVGEFSF
B44: … (peptide)
peptide: FFHEGQYVF
B45: … (peptide)
peptide: KYIDYLMTW
B46: … (peptide)
peptide: QYLDVLHAL
B47: … (peptide)
peptide: RFLMKSYSF
B48: … (peptide)
peptide: VYGVPTPHF
B49: … (peptide)
peptide: SYGTVSQIF
B50: … (peptide)
peptide: AFGQETNVPLNNF
B51: … (peptide)
peptide: VFASLPGFLF
B52: … (peptide)
peptide: KYGDFKLLEF
B53: … (peptide)
peptide: KYGTLDVTF
B54: … (peptide)
peptide: VFIFKGNEF
B55: … (peptide)
peptide: KYIGNLDLL
B56: … (peptide)
peptide: AYVIAVHLF
B57: … (peptide)
peptide: VYPFDWQYI
B58: … (peptide)
peptide: AFIETPIPLF
B59: … (peptide)
peptide: EYLHNCSYF
B60: … (peptide)
peptide: LFITGGQFF
B61: … (peptide)
peptide: VYVPFGGKSMITF
B62: … (peptide)
peptide: IYKWITDNF
B63: … (peptide)
peptide: QYPFHVPLL
B64: … (peptide)
peptide: GYIKLINFI
B65: … (peptide)
peptide: VYTPVASRQSL
B66: … (peptide)
peptide: QYTPHSHQF
B67: … (peptide)
peptide: AYLPPLQQVF
B68: … (peptide)
peptide: VYIAELEKI
B69: … (peptide)
peptide: IYGEKTYAF
B70: … (peptide)
peptide: KYPASSSVF
B71: … (peptide)
peptide: KYTEKLEEI
B72: … (peptide)
peptide: RYFDVGLHNF
B73: … (peptide)
peptide: QYIEELQKF
B74: … (peptide)
peptide: TFSDVEAHF
B75: … (peptide)
peptide: RYKPGEPITF

What follows are binders tested against HLA-A*24 (human) (assay: UV-exchange ELISA (anti-b2m); yield >=75%).

peptide exchange yield [%]	Binder
> 75	B1
> 75	B2
> 75	B3
> 75	B4
> 75	B5
> 75	B6
> 75	B7
> 75	B8
> 75	B9
> 75	B10
> 75	B11
> 75	B12
> 75	B13
> 75	B14
> 75	B15
> 75	B16
> 75	B17
> 75	B18
> 75	B19
> 75	B20
> 75	B21
> 75	B22

peptide exchange yield [%]	Binder
> 75	B23
> 75	B24
> 75	B25
> 75	B26
> 75	B27
> 75	B28
> 75	B29
> 75	B30
> 75	B31
> 75	B32
> 75	B33
> 75	B34
> 75	B35
> 75	B36
> 75	B37
> 75	B38
> 75	B39
> 75	B40
> 75	B41
> 75	B42
> 75	B43
> 75	B44

peptide exchange yield [%]	Binder
> 75	B45
> 75	B46
> 75	B47
> 75	B48
> 75	B49
> 75	B50
> 75	B51
> 75	B52
> 75	B53
> 75	B54
> 75	B55
> 75	B56
> 75	B57
> 75	B58
> 75	B59
> 75	B60
> 75	B61
> 75	B62
> 75	B63
> 75	B64

What follows are binders tested against HLA-A*24 (human) (assay: UV-exchange ELISA (anti-b2m); yield 50%-75%).

peptide exchange yield [%]	Binder
50 to 75	B65
50 to 75	B66
50 to 75	B67
50 to 75	B68
50 to 75	B69
50 to 75	B70
50 to 75	B71
50 to 75	B72
50 to 75	B73
50 to 75	B74
50 to 75	B75

Source: patent US20170056486A1
